In the DeepSol protein solubility set:

test: soluble on expression in E. coli; label from the status in PepcDB or PDB records

Sequence | soluble on expression in E. coli
FSKTQRWAEPGEPICVVCGRYGEYICDKTDEDVCSLECKAKHLLQVKEKEEKS | soluble
MVIWFFYGFRKIMHLSLKRIIVKCKMSQLDRTSLIQYFNSNGVLISPEALDKLIKYSSSSLIEDLIKNSDGYIDEKYVERYVSRPKVRNDYEVYLPDVRFNASIEDFRKMFVSKYEKLSKIITSSSSMRGSISIKTAKRSQGEVKVVGMVSEVSMTKNGHKRIVIEDLDDSITAIVMKDRGPVNEIILEDEVIGIIGSVSQSSKDPVIFVNEIIRPDIPYRVIDEEKHEPVYVASISDIHVGSKTFRKNEFEAMVRWISGSDPDASRVKYLILSGDVVDGIGVYPDQENDLEILNPLEQYANLAEYLVDVPEDVKVFVMPGNHDTVRLSEPQPVFPGKIRDLFEPNVAFLPNPYNLKLEGKNVLVYHGMSLNDMIELIPGANYDSIGKAIEAILVRRHLSPKYGGNTPMIPSAVDYHVIEEVPDIFITGHIHSHYIGNYKGVRYVNSSTWQSQTEYQKMMNFNPKPSKLTLFDLYSRSVIVKDFDTTLLEHHHHHH | not soluble
MRTRLLAILLAVWPAACATAEPACRDLTFEDTRYSLCEAQAGDDIRIFQTAPDGRPYGSFERINSALEGEGRQLAFAMNAGMYHADRRPVGLLIEEEVERAPLVTSAGPGNFGLLPNGVFCVGDGFRVIESRAFAAERPTCRHASQSGPMLVIGGELHPRFLVDSDSRYIRNGVGVSADGRRAVFAISNRPVTFHEFGRLFRDELGLPEALYFDGSISRLYDRGARRSDWGTPMGPIVGLVVPKPLEHHHHHH | not soluble
MAGRKSSRTAERVPTTQKPERKSAILSPHDELRERLLETAIDMKENIPQRNTRNSSVGSQKSDCSETRKRRSTKEGPAAKRHSGEKHRNGSREDSLEYISDDREVGSSSSQSSRTRGQPLPAMPEEEEVFDKSSSSDNLAESEESHEMVRLEERQDIEEEIEDDFDDEEEDVVNDKEEYEEIESEDEDDYPVQNEGFAVTKRLMNDEHMVTAPTFLSTAKCDGIGSPTKVWSLMVKRDEIPRATRFLLGNHPDMDDEKRRILIDWMMEVCESEKLHRETFHLAVDYVDRYLESSNVECSTDNFQLVGTAALFIAAKYEEIYPPKCIDFAHLTDSAFTCDNIRTMEVLIVKYIGWSLGPITSIQWLSTYLQLLGTGKKNKSDHYEEQNMYVPELLRSEYLEMCKILDFLLFEIDSFTFSYRTIAAAVLFVNYEPTCAVEKATGFMQAQLEKVIEYVEPVCRAFAKQRQLLDDVIPKHESIKSDDSHNIQVYVKRSSMEPIVKSERERIQHLKARRLHPQRLF | not soluble
MSGAESYRHITVLLNEAVDALAVREDGVYVDGTFGRGGHSRLILSRLGDAGRLIVFDKDPQAIAVAEELARSDKRVGVVHGGFASFQTALDGLGIGKVDGALFDLGISSPQIDDGSRGFSFRFDAPLDMRMDTTRGMSAAEWIAVASEQDLHEVIKNYGEERFSRQIARAIVAQRAESPIDTTRKLAQIVAQNVRTRERGQDPATRTFQAIRIFINRELEEVGAVLPQVMCRLKEGGRLAVIAFHSLEDRIVKQFVKKYSQHAPLPRWAAVREADLPEPPLKIAGRALKPGEAEIAANPRARSAVLRVAERTAGPIPEQSQRKTSEWQLEHHHHHH | not soluble
MKLPISTISPIHYIKSVVSSRETRSESNKSRRTFANTEWNKIIRETLYLETIYIPLDATSHSPDIIFQLQSPVEPKVLTVGVACKGRWKSEGIGWSDIIDEAKKFLDPLYDQVLSSAMDYHHCMLIIVSTKLSLNVSNELGN | not soluble
MGTEVSTSPTSLIDQTVVPGDVVLDLSNMTNQTIKLGSGLRQDNEVISVMRAGKLRYSKPNKYWVESSHKRYVPRPEDHVLGIVVDCKGENYWIDIKGPQLALLPVLAFEGANRRNYPKFEVSTLLYTRVVKTNTGMNPELSCVDESGKAAGFGPLKDGFMFETSTGLSRMLLSSPTCPVLEALGKKLSFETAFGLNGRCWVHAAAPRIVIIVANALMNSETLSGTQQRIMVEKLLEKISD | soluble
MGHHHHHHSHMGAGLSADRRRSLCAREFRKLGFSNSNPAQDLERVPPGLLALDNMLYFSRNAPSAYSRFVLENSSREDKHECPFARGSIQLTVLLCELLRVGEPCSETAQDFSPMFFGQDQSFHELFCVGIQLLNKTWKEMRATQEDFDKVMQVVREQLARTLALKPTSLELFRTKVNALTYGEVLR | soluble
MGSDKIHHHHHHMENQPNTRSMIFTLYGDYIRHYGNVIWIGSLIRFLQEFGHNEQSVRAAVSRMSKQGWIQSEKKGNKSYYSLTDQGRKRMAEAAQRIYKLEAPSWDEKWRLLIYSIPEEKRSLRDELRKELVWSGFGLLANSCWITPNPLEEQVETLIEKYEISPYVHFFCADYRGMGEPKTLIEKCWDLDEINEKYLAFIQKYSQKYVIDKNKIEKGEMSDGACFVERTLLVHEYRKFLFIDPGLPQELLPEKWLGDSAAHLFADYYRTLAEPARRFFESVFAEGNSLVKKDKEYNFLDHPFMSESQS | not soluble
MSQPESPEQRRTAILATAERILRSGSPLTLGKVAQEVGISRTALYRYVSGIDEIIETLATKDFPHWLTSLRSAMAAAPTPKQRALCWAIESIKLGRETDHAWLATLSSLNLSENCRNAIASEHSKIDQLLRVELAQLGTPHIELTVATVRAVVMTAIQTPSSTEADDYFTATISAIIDASC | not soluble
MGSDKIHHHHHHMVEPSKVVGLISDFGDSPYTGIMRAVIKSISRELQIIDIDHSIPSFSPLAGAYVVAHTYQWLPKGSVIVAVVDPGVGTSRYALAVETENYVFIGPDNGVLYPAAASDGIKRVYALREKDVNSLARMKTSSTAGTVKPWSISRTFHGRDVFAPAGALIAAGHASLEELGDEIEPERMKRASIDHVEKLGPSTFRATVVYIDKFGNVALSIRPKKLGINLSLYKSVVLGTHTTSNTIRMGKTFGDANPGELVAYENSFGHLEIAVNRGNAAKKLGLELEARVEIELLENSGPAPNGSRGVRNADLLGVSSRSLGETIW | not soluble
MGKVILVTGVSRGIGKSIVDVLFSLDKDTVVYGVARSEAPLKKLKEKYGDRFFYVVGDITEDSVLKQLVNAAVKGHGKIDSLVANAGVLEPVQNVNEIDVNAWKKLYDINFFSIVSLVGIALPELKKTNGNVVFVSSDACNMYFSSWGAYGSSKAALNHFAMTLANEERQVKAIAVAPGIVDTDMQVNIRENVGPSSMSAEQLKMFRGLKENNQLLDSSVPATVYAKLALHGIPDGVNGQYLSYNDPALADFMP | soluble
MGARVTRALRNFNVEKRAEREISKRKPSMAPKHPSTRDLLQEHRSQYPEIEEVVSKKDNKLLSLLRDVYVDSKDPVPALPVKVEPRQEPKEFRLPIGNHFDKNITDIPKGKITVVEALTLLNNHKLSPETWTAEKIAQEYYLELKDVNSLLKYFVTFEVKILPPEDRKAIQSK | soluble
MGHHHHHHSHMKNSSSVSNTLTNGCVINGHLDFPSTTPLSGMESRNGQCLTGTNGISSGLAPGQPFPSSQGSLCISGTEEPEKTLRANPELCGSLHLNGSPSSCIASRPSWVEDIGDNLYYGHYHGFGDTAESIPELNSVVEHSKSVKVQERYDSAVLGTMHLHHGS | soluble
MKSLGADLDKALGRLSGGLYIITAKKGDVSSAMLASWVNQASFKPLGFSIAVAKDRAIESLMQVGDRFVLNVLEEGNYQPLMRHFLKRFAPGADRFEGVKTQPAENGAPILGDALAYMECEVVSRMDCGDHWAVYSTVYAGRVSKSEALTAVHHRKVGNHYLEHHHHHH | not soluble
MGSDKIHHHHHHMQPDLLVFGGDLISGPIPLETLDLIYDLKSKYRTASVLGNNDQDIIDSYENKKLSLSNKAQEQIKWVTRLLNEKQILDLKDMPININVGKYFFCHAIADDNRTIFTQKTRISNIKQLFLEVISPFIICGHTHLQFKLKIGSQQIINAGSVGMPFSDKKGAQWLWIENNNFQFRRTLFDEDIAIKNMKNSDFPFVNQFIEEYVKNTVKVRTGYKILRRLEENNRLRK | not soluble
